Numbered stars: 1 amine (or outer) side, 2 acyl side, 3 side chain; on linkers, the order of the positions; unused ones are H or OH. * marks the point of attachment. C20 diacid = O=C(O)CCCCCCCCCCCCCCCCCCC(=O)*; C18 diacid = O=C(O)CCCCCCCCCCCCCCCCC(=O)*; γGlu = O=C(O)[C@H](CCC(=O)[*:2])N[*:1]

B1: [N-terminal(C18 diacid-gGlu), des1, 6T, 9V, 30S, 31G]mimylin (peptide)
peptide: {C18 diacid-γGlu}-ASELTTAVLGRLSAELHELATLPRTETGSGSP-NH2
SMILES: CC(C)C[C@H](NC(=O)[C@H](CCC(=O)O)NC(=O)[C@H](Cc1c[nH]cn1)NC(=O)[C@H](CC(C)C)NC(=O)[C@H](CCC(=O)O)NC(=O)[C@H](C)NC(=O)[C@H](CO)NC(=O)[C@H](CC(C)C)NC(=O)[C@H](CCCNC(=N)N)NC(=O)CNC(=O)[C@H](CC(C)C)NC(=O)[C@@H](NC(=O)[C@H](C)NC(=O)[C@@H](NC(=O)[C@@H](NC(=O)[C@H](CC(C)C)NC(=O)[C@H](CCC(=O)O)NC(=O)[C@H](CO)NC(=O)[C@H](C)NC(=O)CC[C@H](NC(=O)CCCCCCCCCCCCCCCCC(=O)O)C(=O)O)[C@@H](C)O)[C@@H](C)O)C(C)C)C(=O)N[C@@H](C)C(=O)N[C@H](C(=O)N[C@@H](CC(C)C)C(=O)N1CCC[C@H]1C(=O)N[C@@H](CCCNC(=N)N)C(=O)N[C@H](C(=O)N[C@@H](CCC(=O)O)C(=O)N[C@H](C(=O)NCC(=O)N[C@@H](CO)C(=O)NCC(=O)N[C@@H](CO)C(=O)N1CCC[C@H]1C(N)=O)[C@@H](C)O)[C@@H](C)O)[C@@H](C)O
B2: [N-terminal(C20 diacid-gGlu), -1E, 1A, 23Y, 30S, 31G]mimylin (peptide)
peptide: {C20 diacid-γGlu}-EAASELSTAALGRLSAELHELATYPRTETGSGSP-NH2
SMILES: CC(C)C[C@H](NC(=O)[C@H](C)NC(=O)[C@H](C)NC(=O)[C@@H](NC(=O)[C@H](CO)NC(=O)[C@H](CC(C)C)NC(=O)[C@H](CCC(=O)O)NC(=O)[C@H](CO)NC(=O)[C@H](C)NC(=O)[C@H](C)NC(=O)[C@H](CCC(=O)O)NC(=O)CC[C@H](NC(=O)CCCCCCCCCCCCCCCCCCC(=O)O)C(=O)O)[C@@H](C)O)C(=O)NCC(=O)N[C@@H](CCCNC(=N)N)C(=O)N[C@@H](CC(C)C)C(=O)N[C@@H](CO)C(=O)N[C@@H](C)C(=O)N[C@@H](CCC(=O)O)C(=O)N[C@@H](CC(C)C)C(=O)N[C@@H](Cc1c[nH]cn1)C(=O)N[C@@H](CCC(=O)O)C(=O)N[C@@H](CC(C)C)C(=O)N[C@@H](C)C(=O)N[C@H](C(=O)N[C@@H](Cc1ccc(O)cc1)C(=O)N1CCC[C@H]1C(=O)N[C@@H](CCCNC(=N)N)C(=O)N[C@H](C(=O)N[C@@H](CCC(=O)O)C(=O)N[C@H](C(=O)NCC(=O)N[C@@H](CO)C(=O)NCC(=O)N[C@@H](CO)C(=O)N1CCC[C@H]1C(N)=O)[C@@H](C)O)[C@@H](C)O)[C@@H](C)O
B3: [N-terminal(C20 diacid-gGlu), des1, 9T, 21S, 23Y, 30S, 31G]mimylin (peptide)
peptide: {C20 diacid-γGlu}-ASELSTATLGRLSAELHELSTYPRTETGSGSP-NH2
SMILES: CC(C)C[C@H](NC(=O)[C@H](CCCNC(=N)N)NC(=O)CNC(=O)[C@H](CC(C)C)NC(=O)[C@@H](NC(=O)[C@H](C)NC(=O)[C@@H](NC(=O)[C@H](CO)NC(=O)[C@H](CC(C)C)NC(=O)[C@H](CCC(=O)O)NC(=O)[C@H](CO)NC(=O)[C@H](C)NC(=O)CC[C@H](NC(=O)CCCCCCCCCCCCCCCCCCC(=O)O)C(=O)O)[C@@H](C)O)[C@@H](C)O)C(=O)N[C@@H](CO)C(=O)N[C@@H](C)C(=O)N[C@@H](CCC(=O)O)C(=O)N[C@@H](CC(C)C)C(=O)N[C@@H](Cc1c[nH]cn1)C(=O)N[C@@H](CCC(=O)O)C(=O)N[C@@H](CC(C)C)C(=O)N[C@@H](CO)C(=O)N[C@H](C(=O)N[C@@H](Cc1ccc(O)cc1)C(=O)N1CCC[C@H]1C(=O)N[C@@H](CCCNC(=N)N)C(=O)N[C@H](C(=O)N[C@@H](CCC(=O)O)C(=O)N[C@H](C(=O)NCC(=O)N[C@@H](CO)C(=O)NCC(=O)N[C@@H](CO)C(=O)N1CCC[C@H]1C(N)=O)[C@@H](C)O)[C@@H](C)O)[C@@H](C)O
B4: [N-terminal(C20 diacid-gGlu), des1, 23Y, 30S, 31G, 34K, C-terminal(-)]mimylin (peptide)
peptide: {C20 diacid-γGlu}-ASELSTAALGRLSAELHELATYPRTETGSGSPK-OH
SMILES: CC(C)C[C@H](NC(=O)[C@H](C)NC(=O)[C@H](C)NC(=O)[C@@H](NC(=O)[C@H](CO)NC(=O)[C@H](CC(C)C)NC(=O)[C@H](CCC(=O)O)NC(=O)[C@H](CO)NC(=O)[C@H](C)NC(=O)CC[C@H](NC(=O)CCCCCCCCCCCCCCCCCCC(=O)O)C(=O)O)[C@@H](C)O)C(=O)NCC(=O)N[C@@H](CCCNC(=N)N)C(=O)N[C@@H](CC(C)C)C(=O)N[C@@H](CO)C(=O)N[C@@H](C)C(=O)N[C@@H](CCC(=O)O)C(=O)N[C@@H](CC(C)C)C(=O)N[C@@H](Cc1c[nH]cn1)C(=O)N[C@@H](CCC(=O)O)C(=O)N[C@@H](CC(C)C)C(=O)N[C@@H](C)C(=O)N[C@H](C(=O)N[C@@H](Cc1ccc(O)cc1)C(=O)N1CCC[C@H]1C(=O)N[C@@H](CCCNC(=N)N)C(=O)N[C@H](C(=O)N[C@@H](CCC(=O)O)C(=O)N[C@H](C(=O)NCC(=O)N[C@@H](CO)C(=O)NCC(=O)N[C@@H](CO)C(=O)N1CCC[C@H]1C(=O)N[C@@H](CCCCN)C(=O)O)[C@@H](C)O)[C@@H](C)O)[C@@H](C)O
B5: [N-terminal(C20 diacid-gGlu), des1, 23Y, 30S, 31G, 34G, C-terminal(-)]mimylin (peptide)
peptide: {C20 diacid-γGlu}-ASELSTAALGRLSAELHELATYPRTETGSGSPG-OH
SMILES: CC(C)C[C@H](NC(=O)[C@H](C)NC(=O)[C@H](C)NC(=O)[C@@H](NC(=O)[C@H](CO)NC(=O)[C@H](CC(C)C)NC(=O)[C@H](CCC(=O)O)NC(=O)[C@H](CO)NC(=O)[C@H](C)NC(=O)CC[C@H](NC(=O)CCCCCCCCCCCCCCCCCCC(=O)O)C(=O)O)[C@@H](C)O)C(=O)NCC(=O)N[C@@H](CCCNC(=N)N)C(=O)N[C@@H](CC(C)C)C(=O)N[C@@H](CO)C(=O)N[C@@H](C)C(=O)N[C@@H](CCC(=O)O)C(=O)N[C@@H](CC(C)C)C(=O)N[C@@H](Cc1c[nH]cn1)C(=O)N[C@@H](CCC(=O)O)C(=O)N[C@@H](CC(C)C)C(=O)N[C@@H](C)C(=O)N[C@H](C(=O)N[C@@H](Cc1ccc(O)cc1)C(=O)N1CCC[C@H]1C(=O)N[C@@H](CCCNC(=N)N)C(=O)N[C@H](C(=O)N[C@@H](CCC(=O)O)C(=O)N[C@H](C(=O)NCC(=O)N[C@@H](CO)C(=O)NCC(=O)N[C@@H](CO)C(=O)N1CCC[C@H]1C(=O)NCC(=O)O)[C@@H](C)O)[C@@H](C)O)[C@@H](C)O
B6: [N-terminal(C18 diacid-gGlu), des1, 4Q, 30S, 31G]mimylin (peptide)
peptide: {C18 diacid-γGlu}-ASQLSTAALGRLSAELHELATLPRTETGSGSP-NH2
SMILES: CC(C)C[C@H](NC(=O)[C@H](C)NC(=O)[C@H](C)NC(=O)[C@@H](NC(=O)[C@H](CO)NC(=O)[C@H](CC(C)C)NC(=O)[C@H](CCC(N)=O)NC(=O)[C@H](CO)NC(=O)[C@H](C)NC(=O)CC[C@H](NC(=O)CCCCCCCCCCCCCCCCC(=O)O)C(=O)O)[C@@H](C)O)C(=O)NCC(=O)N[C@@H](CCCNC(=N)N)C(=O)N[C@@H](CC(C)C)C(=O)N[C@@H](CO)C(=O)N[C@@H](C)C(=O)N[C@@H](CCC(=O)O)C(=O)N[C@@H](CC(C)C)C(=O)N[C@@H](Cc1c[nH]cn1)C(=O)N[C@@H](CCC(=O)O)C(=O)N[C@@H](CC(C)C)C(=O)N[C@@H](C)C(=O)N[C@H](C(=O)N[C@@H](CC(C)C)C(=O)N1CCC[C@H]1C(=O)N[C@@H](CCCNC(=N)N)C(=O)N[C@H](C(=O)N[C@@H](CCC(=O)O)C(=O)N[C@H](C(=O)NCC(=O)N[C@@H](CO)C(=O)NCC(=O)N[C@@H](CO)C(=O)N1CCC[C@H]1C(N)=O)[C@@H](C)O)[C@@H](C)O)[C@@H](C)O
B7: [N-terminal(C18 diacid-gGlu), des1, 4Q, 16Q, 30S, 31G]mimylin (peptide)
peptide: {C18 diacid-γGlu}-ASQLSTAALGRLSAQLHELATLPRTETGSGSP-NH2
SMILES: CC(C)C[C@H](NC(=O)[C@H](C)NC(=O)[C@H](C)NC(=O)[C@@H](NC(=O)[C@H](CO)NC(=O)[C@H](CC(C)C)NC(=O)[C@H](CCC(N)=O)NC(=O)[C@H](CO)NC(=O)[C@H](C)NC(=O)CC[C@H](NC(=O)CCCCCCCCCCCCCCCCC(=O)O)C(=O)O)[C@@H](C)O)C(=O)NCC(=O)N[C@@H](CCCNC(=N)N)C(=O)N[C@@H](CC(C)C)C(=O)N[C@@H](CO)C(=O)N[C@@H](C)C(=O)N[C@@H](CCC(N)=O)C(=O)N[C@@H](CC(C)C)C(=O)N[C@@H](Cc1c[nH]cn1)C(=O)N[C@@H](CCC(=O)O)C(=O)N[C@@H](CC(C)C)C(=O)N[C@@H](C)C(=O)N[C@H](C(=O)N[C@@H](CC(C)C)C(=O)N1CCC[C@H]1C(=O)N[C@@H](CCCNC(=N)N)C(=O)N[C@H](C(=O)N[C@@H](CCC(=O)O)C(=O)N[C@H](C(=O)NCC(=O)N[C@@H](CO)C(=O)NCC(=O)N[C@@H](CO)C(=O)N1CCC[C@H]1C(N)=O)[C@@H](C)O)[C@@H](C)O)[C@@H](C)O

The target in this assay is T1, human amylin receptor (human calcitonin receptor + human RAMP3) (human) (UniProt P30988).
T1 sequence (looked up) 1: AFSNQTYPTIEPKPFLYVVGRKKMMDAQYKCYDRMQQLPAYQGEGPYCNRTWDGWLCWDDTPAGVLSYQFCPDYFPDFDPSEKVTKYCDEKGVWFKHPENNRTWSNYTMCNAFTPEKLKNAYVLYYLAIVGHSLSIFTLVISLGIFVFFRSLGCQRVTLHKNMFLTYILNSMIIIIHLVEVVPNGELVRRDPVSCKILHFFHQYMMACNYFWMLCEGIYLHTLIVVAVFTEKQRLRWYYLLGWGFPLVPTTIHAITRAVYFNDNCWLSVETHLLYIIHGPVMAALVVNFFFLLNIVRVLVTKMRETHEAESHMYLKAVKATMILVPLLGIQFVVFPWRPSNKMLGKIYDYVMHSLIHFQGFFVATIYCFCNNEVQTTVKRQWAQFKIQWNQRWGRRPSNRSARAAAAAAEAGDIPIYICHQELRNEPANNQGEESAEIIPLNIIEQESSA
T1 sequence (looked up) 2: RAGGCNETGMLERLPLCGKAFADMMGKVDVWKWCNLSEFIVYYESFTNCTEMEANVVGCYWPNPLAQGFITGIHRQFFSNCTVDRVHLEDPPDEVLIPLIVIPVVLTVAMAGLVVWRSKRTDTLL
Description: whole-cell competition vs 125I-rat amylin (Assay Va).
One may read the IC50 as the concentration that gives 50% inhibition. Take B1: the IC50 is 0.653 nM.
As for B2, the figure is 1.92 nM; as for B3, 2.61 nM; as for B4, 21 nM.
As for B5, the figure is 7.26 nM.
For {C20 diacid-γGlu}-ASGLSTAALGRLSAELHELATYPRTETGSGSP-NH2 [[N-terminal(C20 diacid-gGlu), des1, 4G, 23Y, 30S, 31G]mimylin], the IC50 was 0.111 nM.
As for {C20 diacid-γGlu}-ASELSTAALGRLSAELHELATYPRTETGSGSY-OH [[N-terminal(C20 diacid-gGlu), des1, 23Y, 30S, 31G, 33Y, C-terminal(-)]mimylin], the figure is 92 nM; as for {C18 diacid-γGlu}-ASEVSTAVLGRLSAELHELATLPRTETGSGSP-NH2 [[N-terminal(C18 diacid-gGlu), des1, 5V, 9V, 30S, 31G]mimylin], 0.812 nM; as for B6, 0.587 nM.
For B7 the value was 0.428 nM.

For the origin of these results see patent US20160272683A1 (Novo Nordisk, published 2016).
